Laboratory results as given in patent US20060160174A1 (published 2006).

T1: soluble p97 (amino acids 20-710 of human p97 precursor), 6x his tag (human, UniProt P08582 20-710)
T1 construct: range 20-710; also called p97 melanotransferrin; recombinant p97; not shown: 6x his tag from vector pSecTag2
T1 sequence: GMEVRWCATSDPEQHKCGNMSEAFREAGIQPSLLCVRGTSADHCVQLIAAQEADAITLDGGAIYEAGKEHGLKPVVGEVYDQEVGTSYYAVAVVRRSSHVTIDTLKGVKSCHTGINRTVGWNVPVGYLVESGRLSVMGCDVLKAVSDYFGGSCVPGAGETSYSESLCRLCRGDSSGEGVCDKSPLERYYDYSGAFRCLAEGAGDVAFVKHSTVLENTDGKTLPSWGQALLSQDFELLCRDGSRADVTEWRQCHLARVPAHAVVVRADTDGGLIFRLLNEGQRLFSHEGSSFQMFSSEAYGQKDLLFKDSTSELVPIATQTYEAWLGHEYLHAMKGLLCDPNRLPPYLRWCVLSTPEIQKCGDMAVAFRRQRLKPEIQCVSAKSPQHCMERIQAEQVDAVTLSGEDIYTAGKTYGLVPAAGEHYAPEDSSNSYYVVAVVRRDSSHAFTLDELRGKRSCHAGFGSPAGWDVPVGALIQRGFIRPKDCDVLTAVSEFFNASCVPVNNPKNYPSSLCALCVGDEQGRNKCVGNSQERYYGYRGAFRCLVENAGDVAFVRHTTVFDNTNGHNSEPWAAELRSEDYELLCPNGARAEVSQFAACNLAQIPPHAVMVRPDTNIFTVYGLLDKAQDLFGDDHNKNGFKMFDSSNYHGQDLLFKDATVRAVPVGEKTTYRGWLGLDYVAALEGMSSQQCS

T2: p97 antigen on human melanoma H3677 cells (human, UniProt P08582 20-709)
T2 sequence: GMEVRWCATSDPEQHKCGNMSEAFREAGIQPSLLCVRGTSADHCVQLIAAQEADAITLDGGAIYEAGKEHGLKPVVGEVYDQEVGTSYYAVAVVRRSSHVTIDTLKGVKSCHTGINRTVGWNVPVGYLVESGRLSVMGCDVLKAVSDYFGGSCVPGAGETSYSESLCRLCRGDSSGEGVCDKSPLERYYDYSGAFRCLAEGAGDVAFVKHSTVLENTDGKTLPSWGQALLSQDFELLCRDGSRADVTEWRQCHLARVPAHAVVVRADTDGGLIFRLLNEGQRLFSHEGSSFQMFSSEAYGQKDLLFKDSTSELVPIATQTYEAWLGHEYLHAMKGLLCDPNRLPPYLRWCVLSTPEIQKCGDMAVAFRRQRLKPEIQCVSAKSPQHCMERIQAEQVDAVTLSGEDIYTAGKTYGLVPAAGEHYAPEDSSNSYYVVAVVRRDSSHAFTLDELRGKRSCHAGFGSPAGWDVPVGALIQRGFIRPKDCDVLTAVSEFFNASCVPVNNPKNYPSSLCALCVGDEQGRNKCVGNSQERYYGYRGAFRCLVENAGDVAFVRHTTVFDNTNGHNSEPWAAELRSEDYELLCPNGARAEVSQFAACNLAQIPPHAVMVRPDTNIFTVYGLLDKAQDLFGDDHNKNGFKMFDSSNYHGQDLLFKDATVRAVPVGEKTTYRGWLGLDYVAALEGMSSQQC


Tests used:
[1] = target: T1, soluble p97 (amino acids 20-710 of …); test: SPR, Biacore 2000, 25 C; p97 immobilised on CM5 chip, scFv fusion injected; 1:1 model
[2] = target: T2, p97 antigen on human melanoma H3677 …; test: cell-based or functional assay
[3] = target: T1, soluble p97 (amino acids 20-710 of …); test: SEC binding assay with purified p97 (discussion of the example)

Binder	Kd [1]	koff [1]	kon [1]	IC50 of prodrug C-Mel on H3677 melanoma cells pre-treated with 10 nM fusion protein, unbound material washed off; cell viability by alamarBlue [2]	percent of purified protein bound to antigen [3]
L49-sFv-bL triple mutant FP990 (K H39 Q, F H82B S, N H91 Y) (scFv) scFv: MEVQLQESGPSLVKPSQTLSLTCSVTGDSITSGYWNWIRQFPGNKLEYMGYISDSGITYYNPSLKSRISITRDTSKNQYYLQLNSVTAEDTATYYCARRTLATYYAMDYWGQGTSVTVSSGSTSGSGKPGSGEGSTKGDFVMTQTPLSLPVSLGDQASISCRASQSLVHSNGNTYLHWYLQKPGQSPKLLIYRVSNRFSGVPDRFSGSGSGTDFTLKISRVEAEDLGVYFCSQSTHVPPTFGGGTKLEIKRTPVSEKQLAEVVANTITPLMKAQSVPGMAVAVIYQGKPHYYTFGKADIAANKPVTPQTLFELGSISKTFTGVLGGDAIARGEISLDDAVTRYWPQLTGKQWQGIRMLDLATYTAGGLPLQVPDEVTDNASLLRFYQNWQPQWKPGTTRLYANASIGLFGALAVKPSGMPYEQAMTTRVLKPLKLDHTWINVPKAEEAHYAWGYRDGKAVRVSPGMLDAQAYGVKTNVQDMANWVMANMAPENVADASLKQGIALAQSRYWRIGSMYQGLGWEMLNWPVEANTVVETSFGNVALAPLPVAEVNPPAPPVKASWVHKTGSTGGFGSYVAFIPEKQIGIVMLANTSYPNPARVEAAYHILEALQ	1.75 nM	0.000782 s⁻¹	448000 M⁻¹ s⁻¹	5000 nM	100%
reverse orientation triple mutant FP999 (K H39 Q, F H82B S, N H91 Y, bL-L49-sFv orientation) (scFv, also called bL-L49-scFv) TPVSEKQLAEVVANTITPLMKAQSVPGMAVAVIYQGKPHYYTFGKADIAANKPVTPQTLFELGSISKTFTGVLGGDAIARGEISLDDAVTRYWPQLTGKQWQGIRMLDLATYTAGGLPLQVPDEVTDNASLLRFYQNWQPQWKPGTTRLYANASIGLFGALAVKPSGMPYEQAMTTRVLKPLKLDHTWINVPKAEEAHYAWGYRDGKAVRVSPGMLDAQAYGVKTNVQDMANWVMANMAPENVADASLKQGIALAQSRYWRIGSMYQGLGWEMLNWPVEANTVVETSFGNVALAPLPVAEVNPPAPPVKASWVHKTGSTGGFGSYVAFIPEKQIGIVMLANTSYPNPARVEAAYHILEALQMHGTKLMEVQLQESGPSLVKPSQTLSLTCSVTGDSITSGYWNWIRQFPGNKLEYMGYISDSGITYYNPSLKSRISITRDTSKNQYYLQLNSVTAEDTATYYCARRTLATYYAMDYWGQGTSVTVSSGSTSGSGKPGSGEGSTKGDFVMTQTPLSLPVSLGDQASISCRASQSLVHSNGNTYLHWYLQKPGQSPKLLIYRVSNRFSGVPDRFSGSGSGTDFTLKISRVEAEDLGVYFCSQSTHVPPTFGGGTKLEIKR	1.71 nM	0.000575 s⁻¹	337000 M⁻¹ s⁻¹	5000 nM	
